The term Kd denotes the equilibrium constant for the complex coming apart.

Results on three molecules are retold here after US5574136, “DNA encoding granulocyte colony-stimulating factor receptor and protein thereof” (Osaka Bioscience Institute, dated 1996).

Test [1] concerns the target T1, mouse recombinant G-CSF (granulocyte colony-stimulating factor) (mouse, UniProt P09920, radioiodinated (125I, IODO-GEN method) where used as the labelled ligand; unlabelled where used as competitor). As to the kind of experiment: saturation binding of 125I-G-CSF to COS cells transfected with pJ17, Scatchard plot. On the procedure:
The binding of ^125I-G-CSF to COS or NFS-60 cells was examined. COS cells grown on 15 cm plates were transfected with 20 µg of the pI62 or pJ17 plasmid. Cells were split into 6-well microtiter plates at 12 hr after the glycerol shock, and grown for 60 hr in DMEM containing 10% FCS. Cells were washed with binding medium, and incubated at 4° C. for 4 hr with ^125I-G-CSF (10 pM to 1.2 nM range). To determine the non-specific binding of ^125I-G-CSF to cells, a large excess of unlabeled G-CSF (800 nM) was incubated in the assay mixture, and the radioactivity bound to the cells was subtracted from the total binding to yield the specific binding.
For binding of G-CSF to NFS-60 cells, 5.2 ×10^6 cells were incubated at 4° C. for 4 hr with various concentrations of ^125I-G-CSF in 0.3 ml of RPMI-1640 medium containing 10% FCS and 20 mM HEPES (pH 7.3). As mentioned above, 1 ×10^6 COS cells transfected with the plasmid pJ17 were incubated with various amounts of ^125I-G-CSF with or without an excess of unlabeled G-CSF. In the FIG. 3A, the specific binding (●) is shown as the difference between total (○) and non-specific binding (Δ). FIG. 3B is the scatchard plot of G-CSF binding data in COS cells, and FIG. 3C is the saturated binding of ^125I-G-CSF to NFS-60 cells, showing total (○), non-specific (Δ) and specific (●) binding to cells. […]

Another test addresses T2, human recombinant M-CSF (human, UniProt P09603).
T2 sequence: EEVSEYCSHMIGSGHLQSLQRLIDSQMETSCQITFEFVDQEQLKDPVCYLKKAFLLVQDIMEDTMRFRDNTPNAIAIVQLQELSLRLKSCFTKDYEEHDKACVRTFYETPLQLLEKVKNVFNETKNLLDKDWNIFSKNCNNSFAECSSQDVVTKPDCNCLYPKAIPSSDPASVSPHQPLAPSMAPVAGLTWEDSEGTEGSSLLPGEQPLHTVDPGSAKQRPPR
As to the kind of experiment: competition for binding of 125I-mouse G-CSF to COS cells transfected with pJ17.

Test [2] addresses mouse recombinant LIF (leukemia inhibitory factor) (mouse, UniProt P09056). The description is as above.
For a further test, the target named is mouse recombinant GM-CSF (mouse, UniProt P01587). The test is described as above.
The target in the next test is T3, mouse recombinant IL-6 (mouse, UniProt P08505).
T3 sequence: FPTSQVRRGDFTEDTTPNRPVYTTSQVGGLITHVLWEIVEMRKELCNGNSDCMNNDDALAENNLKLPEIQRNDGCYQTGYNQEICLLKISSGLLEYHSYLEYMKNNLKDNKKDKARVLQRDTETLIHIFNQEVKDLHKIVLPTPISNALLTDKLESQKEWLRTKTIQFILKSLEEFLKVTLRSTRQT
Described as above.

In another test the target is mouse recombinant IL-3 (mouse, UniProt P01586). The description is as above.
A further test has as its target T4, rat prolactin (rat, UniProt P01237).
T4 sequence: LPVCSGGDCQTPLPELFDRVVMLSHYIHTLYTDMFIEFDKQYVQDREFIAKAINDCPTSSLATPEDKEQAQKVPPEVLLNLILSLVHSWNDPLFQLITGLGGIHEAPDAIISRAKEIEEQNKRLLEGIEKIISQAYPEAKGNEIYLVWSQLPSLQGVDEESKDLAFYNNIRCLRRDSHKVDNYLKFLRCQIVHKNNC
The description is as above.

The target of test [3] is T1, mouse recombinant G-CSF (granulocyte …). As to the kind of experiment: saturation binding of 125I-G-CSF to NFS-60 cells, Scatchard plot. On the procedure: For binding of G-CSF to NFS-60 cells, 5.2 ×10^6 cells were incubated at 4° C. for 4 hr with various concentrations of ^125I-G-CSF in 0.3 ml of RPMI-1640 medium containing 10% FCS and 20 mM HEPES (pH 7.3). As mentioned above, 1 ×10^6 COS cells transfected with the plasmid pJ17 were incubated with various amounts of ^125I-G-CSF with or without an excess of unlabeled G-CSF. In the FIG. 3A, the specific binding (●) is shown as the difference between total (○) and non-specific binding (Δ). FIG. 3B is the scatchard plot of G-CSF binding data in COS cells, and FIG. 3C is the saturated binding of ^125I-G-CSF to NFS-60 cells, showing total (○), non-specific (Δ) and specific (●) binding to cells. The specific binding is the difference between the total and non-specific binding. FIG. 3D is the scatchard plot of G-CSF binding data on NFS-60 cells. […] If the transfection efficiency of COS cells was assumed to be 10 to 20% (Sympayrac and Danna, Proc. Natl. Acad. Sci. USA, 78, 7575–7578 (1981)), the positively transfected COS cells probably expressed the recombinant G-CSF receptor at 1.5-3.0 ×10^5 molecules per cell.

Test [4] shares this target. As to the kind of experiment: saturation binding of murine 125I-G-CSF to COS cells transfected with pHQ3, Scatchard plot.

B1: recombinant murine G-CSF receptor expressed on COS cells (plasmids pI62, pJ17) (receptor)
chain: CGHIEISPPVVRLGDPVLASCTISPNCSKLDQQAKILWRLQDEPIQPGDRQHHLPDGTQESLITLPHLNYTQAFLFCLVPWEDSVQLLDQAELHAGYPPASPSNLSCLMHLTTNSLVCQWEPGPETHLPTSFILKSFRSRADCQYQGDTIPDCVAKKRQNNCSIPRKNLLLYQYMAIWVQAENMLGSSESPKLCLDPMDVVKLEPPMLQALDIGPDVVSHQPGCLWLSWKPWKPSEYMEQECELRYQPQLKGANWTLVFHLPSSKDQFELCGLHQAPVYTLQMRCIRSSLPGFWSPWSPGLQLRPTMKAPTIRLDTWCQKKQLDPGTVSVQLFWKPTPLQEDSGQIQGYLLSWNSPDHQGQDIHLCNTTQLSCIFLLPSEAQNVTLVAYNKAGTSSPTTVVFLENEGPAVTGLHAMAQDLNTIWVDWEAPSLLPQGYLIEWEMSSPSYNNSYKSWMIEPNGNITGILLKDNINPFQLYRITVAPLYPGIVGPPVNVYTFAGERAPPHAPALHLKHVGTTWAQLEWVPEAPRLGMIPLTHYTIFWADAGDHSFSVTLNISLHDFVLKHLEPASLYHVYLMATSRAGSTNSTGLTLRTLDPSDLNIFLGILCLVLLSTTCVVTWLCCKRRGKTSFWSDVPDPAHSSLSSWLPTIMTEETFQLPSFWDSSVPSITKITELEEDKKPTHWDSESSGNGSLPALVQAYVLQGDPREISNQSQPPSRTGDQVLYGQVLESPTSPGVMQYIRSDSTQPLLGGPTPSPKSYENIWFHSRPQETFVPQPPNQEDDCVFGPPFDFPLFQGLQVHGVEEQGGF
Turning to B1, the Kd in test [1] turned out to be 0.29 nM. Moreover, the binding result (with human recombinant M-CSF; in [2]; in the test with mouse recombinant GM-CSF; with mouse recombinant IL-6; with mouse recombinant IL-3; in the test with rat prolactin) was “no binding” in each case.

B2: native murine G-CSF receptor on NFS-60 cells (receptor)
chain: B1 chain
As to B2, in test [3], the Kd amounted to 0.18 nM.

B3: human G-CSF receptor, class 1 (plasmid pHQ3), expressed on COS cells (receptor)
chain: EECGHISVSAPIVHLGDPITASCIIKQNCSHLDPEPQILWRLGAELQPGGRQQRLSDGTQESIITLPHLNHTQAFLSCCLNWGNSLQILDQVELRAGYPPAIPHNLSCLMNLTTSSLICQWEPGPETHLPTSFTLKSFKSRGNCQTQGDSILDCVPKDGQSHCCIPRKHLLLYQNMGIWVQAENALGTSMSPQLCLDPMDVVKLEPPMLRTMDPSPEAAPPQAGCLQLCWEPWQPGLHINQKCELRHKPQRGEASWALVGPLPLEALQYELCGLLPATAYTLQIRCIRWPLPGHWSDWSPSLELRTTERAPTVRLDTWWRQRQLDPRTVQLFWKPVPLEEDSGRIQGYVVSWRPSGQAGAILPLCNTTELSCTFHLPSEAQEVALVAYNSAGTSRPTPVVFSESRGPALTRLHAMARDPHSLWVGWEPPNPWPQGYVIEWGLGPPSASNSNKTWRMEQNGRATGFLLKENIRPFQLYEIIVTPLYQDTMGPSQHVYAYSQEMAPSHAPELHLKHIGKTWAQLEWVPEPPELGKSPLTHYTIFWTNAQNQSFSAILNASSRGFVLHGLEPASLYHIHLMAASQAGATNSTVLTLMTLTPEGSELHIILGLFGLLLLLTCLCGTAWLCCSPNRKNPLWPSVPDPAHSSLGSWVPTIMEEDAFQLPGLGTPPITKLTVLEEDEKKPVPWESHNSSETCGLPTLVQTYVLQGDPRAVSTQPQSQSGTSDQVLYGQLLGSPTSPGPGHYLRCDSTQPLLAGLTPSPKSYENLWFQASPLGTLVTPAPSQEDDCVFGPLLNFPLLQGIRVHGMEALGSF
Turning to B3, the Kd in test [4] was found to be 0.55 nM.
